Among the data in patent US20200270362A1 (HARPOON THERAPEUTICS, published 2020) are Kd values, retold here.

The assay has as its target T1, TriTAC 75.
T1 construct: Single-chain MSLN/albumin/CD3 trispecific protein, 6xHis
The assay is described as follows: Affinity measurement, method not stated; row 'Kd huCD3E' (faint print).

T1 sequence (chain, as listed by the source): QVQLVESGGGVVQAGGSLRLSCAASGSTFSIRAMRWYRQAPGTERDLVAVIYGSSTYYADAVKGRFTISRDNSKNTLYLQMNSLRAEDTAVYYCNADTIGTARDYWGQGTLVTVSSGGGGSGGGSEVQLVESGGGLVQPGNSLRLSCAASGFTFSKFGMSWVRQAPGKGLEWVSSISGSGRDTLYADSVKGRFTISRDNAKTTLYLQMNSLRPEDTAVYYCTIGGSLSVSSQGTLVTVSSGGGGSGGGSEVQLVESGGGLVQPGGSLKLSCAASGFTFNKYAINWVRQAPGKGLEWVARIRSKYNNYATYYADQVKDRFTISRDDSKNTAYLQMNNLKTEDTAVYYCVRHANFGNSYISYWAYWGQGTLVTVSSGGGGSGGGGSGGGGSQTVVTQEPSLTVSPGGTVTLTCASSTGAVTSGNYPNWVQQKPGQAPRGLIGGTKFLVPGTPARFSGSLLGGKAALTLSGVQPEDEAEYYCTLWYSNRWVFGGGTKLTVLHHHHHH

B1: human CD3ε (receptor, UniProt P07766 23-126, looked up)
chain: DGNEEMGGITQTPYKVSISGTTVILTCPQYPGSEILWQHNDKNIGGDEDDKNIGSDEDHLSLKEFSELEQSGYYVCYPRGSKPEDANFYLYLRARVCENCMEMD
notes: also called human CD3c (so in the source)
Usually Kd stands for the concentration at which binding is half-saturated. Read a high Kd as weaker binding. Consider B1, for which binding was put at a Kd of 0.01 µM.
